# Numbering of substitutions follows the chain as printed. In names and notes the source's numbering stands.
# B1: MeOXC (OXC, oxalyl-CoA decarboxylase) (Methylorubrum extorquens AM1; A415C/E135G/S568G/Y497F) (protein)
# chain: MTVQAQNIDAITAGAMPHEEPELTDGFHLVIDALKLNGIETIYNVPGIPITDLGRLAQAEGLRVISFRHEQNAGNAAAIAGFLTKKPGICLTVSAPGFLNGLTALANATTNCFPMILISGSSEREIVDLQQGDYGEMDQLAIAKPLCKAAFRVLHAADIGIGVARAIRAAVSGRPGGVYLDLPAKLFSQVIDADLGARSLVKVIDAAPAQLPAPAAIARALDVLKSAERPLIILGKGAAYAQADEAVRALVEESGIPYVPMSMAKGLLPDTHPLSAGAARSTALKDSDVVLLVGARLNWLLSHGKGKTWGEPGSKRFIQIDIEPREMDSNVEIVAPVVGDIGSCVEALLDGIRKDWKGAPSNWLETLRGKREANIAKMAPKLMKNSSPMCFHSALGALRTVIKERPDAILVNEGCNTLDLARGIIDMYQPRKRLDVGTWGVMGIGMGFAVAAAVETGKPVLAVEGDSAFGFSGMEVETICRYELPVCIVIFNNNGIFRGTDTDPTGRDPGTTVFVKNSRYDKMMEAFGGVGVNVTTPDELKRAVDEAMNSGKPTLINAEIDPAAGSEGGNIGSLNPQSTLKKK
# notes: recombinant, produced in E. coli; purified; homotetramer; ThDP and Mg2+ dependent
# B2: MeOXC (OXC, oxalyl-CoA decarboxylase) (Methylorubrum extorquens AM1; A415C/S568G) (protein)
# chain: B1 chain with G135E, F497Y
# notes: as for B1
# B3: MeOXC (OXC, oxalyl-CoA decarboxylase) (Methylorubrum extorquens AM1) (protein)
# chain: B1 chain with G135E, C415A, F497Y, G568S
# notes: as for B1
# B4: MeOXC (OXC, oxalyl-CoA decarboxylase) (Methylorubrum extorquens AM1; A415C/E135G/S568G) (protein)
# chain: B1 chain with F497Y
# notes: as for B1
# B5: MeOXC (OXC, oxalyl-CoA decarboxylase) (Methylorubrum extorquens AM1; A415C) (protein)
# chain: B1 chain with G135E, F497Y, G568S
# notes: as for B1
# B6: AbfT (4-hydroxybutyrate CoA-transferase) (Clostridium aminobutyricum) (protein)
# chain: MDWKKIYEDRTCTADEAVKSIKSGDRVLFAHCVAEPPVLVEAMVANAAAYKNVTVSHMVTLGKGEYSKPEYKENFTFEGWFTSPSTRGSIAEGHGQFVPVFFHEVPSLIRKDIFHVDVFMVMVSPPDHNGFCCVGVSSDYTMQAIKSAKIVLAEVNDQVPVVYGDTFVHVSEIDKFVETSHPLPEIGLPKIGEVEAAIGKHCASLIEDGSTLQLGIGAIPDAVLSQLKDKKHLGIHSEMISDGVVDLYEAGVIDCSQKSIDKGKMAITFLMGTKRLYDFAANNPKVELKPVDYINHPSVVAQCSKMVCINACLQVDFMGQIVSDSIGTKQFSGVGGQVDFVRGASMSIDGKGKAIIAMPSVAKKKDGSMISKIVPFIDHGAAVTTSRNDADYVVTEYGIAEMKGKSLQDRARALINIAHPDFKDELKAEFEKRFNAAF
# notes: purified
# What was measured:
# [1] = molecular target: T1, MeOXC (OXC, oxalyl-CoA decarboxylase) (Methylorubrum extorquens, UniProt C5AX46, E135G/A415C/Y497F/S568G); assay: X-ray crystal structure, […] Å; format: binding; conditions: MeOXC4; Mg2+; C-terminus beyond E567 modelled
# T1 construct: gene MexAM1_META1p0990; recombinant, produced in E. coli; purified; homotetramer; ThDP and Mg2+ dependent
# From the text: Substitution E135G gave rise to a cavity in the ThDP binding pocket
# [2] = molecular target: T2, MeOXC (OXC, oxalyl-CoA decarboxylase) (Methylorubrum extorquens, UniProt C5AX46); assay: X-ray crystal structure, […] Å; format: binding; conditions: Mg2+; C-terminal 16 residues modelled
# T2 construct: gene MexAM1_META1p0990; recombinant, produced in E. coli; purified; homotetramer; ThDP and Mg2+ dependent
# T2 sequence (C5AX46 entry or part of it): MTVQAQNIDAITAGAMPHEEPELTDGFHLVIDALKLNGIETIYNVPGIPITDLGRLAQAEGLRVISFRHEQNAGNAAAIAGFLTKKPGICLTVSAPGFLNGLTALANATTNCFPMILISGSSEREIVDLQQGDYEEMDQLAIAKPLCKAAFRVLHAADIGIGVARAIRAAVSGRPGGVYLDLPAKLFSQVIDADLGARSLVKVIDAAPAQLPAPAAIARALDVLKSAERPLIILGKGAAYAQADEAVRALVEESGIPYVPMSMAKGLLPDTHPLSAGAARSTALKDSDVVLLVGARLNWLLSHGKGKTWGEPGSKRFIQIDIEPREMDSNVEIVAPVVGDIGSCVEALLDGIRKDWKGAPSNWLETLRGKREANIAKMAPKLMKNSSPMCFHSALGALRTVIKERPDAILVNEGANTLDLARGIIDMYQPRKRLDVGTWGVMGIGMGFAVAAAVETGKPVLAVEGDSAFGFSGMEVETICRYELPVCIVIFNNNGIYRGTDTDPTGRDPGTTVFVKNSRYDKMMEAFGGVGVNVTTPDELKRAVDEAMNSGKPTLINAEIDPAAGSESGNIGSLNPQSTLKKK
# [3] = substrate: C=O; assay: steady-state kinetics, glycolyl-CoA synthase (carboligation) activity; format: biochemical, Methylorubrum extorquens; conditions: co-substrate formyl-CoA, apparent
# From the text: (§1) steady-state kinetics, glycolyl-CoA synthase (carboligation) activity on MeOXC (OXC, oxalyl-CoA decarboxylase)
# [4] = substrate: CC(C)(COP(=O)(O)OP(=O)(O)OC[C@H]1O[C@@H](n2cnc3c(N)ncnc32)[C@H](O)[C@@H]1OP(=O)(O)O)[C@@H](O)C(=O)NCCC(=O)NCCSC=O; assay: as above; format: biochemical, Methylorubrum extorquens; conditions: co-substrate formaldehyde, apparent
# From the text: as §1
# [5] = substrate: CC(C)(COP(=O)(O)OP(=O)(O)OC[C@H]1O[C@@H](n2cnc3c(N)ncnc32)[C@H](O)[C@@H]1OP(=O)(O)O)[C@@H](O)C(=O)NCCC(=O)NCCSC(=O)C(=O)O; assay: oxalyl-CoA decarboxylation kinetics; format: biochemical, Methylorubrum extorquens; conditions: MeOXC4
# [6] = substrate: CC(C)(COP(=O)(O)OP(=O)(O)OC[C@H]1O[C@@H](n2cnc3c(N)ncnc32)[C@H](O)[C@@H]1OP(=O)(O)O)[C@@H](O)C(=O)NCCC(=O)NCCSC(=O)CO; assay: CoA transfer from glycolyl-CoA to formate, Michaelis-Menten; format: biochemical, Clostridium aminobutyricum; conditions: formate 25 mM as acceptor
# From the text: CoA transfer from glycolyl-CoA to formate, Michaelis-Menten on AbfT (4-hydroxybutyrate CoA-transferase) | AbfT).
molecule,measurement,setting,value
Cc1ncc(C[n+]2csc(CCOP(=O)(O)OP(=O)(O)O)c2C)c(N)n1 [ThDP],"X-ray crystal structure, 2.4 Å",[1],Active site of MeOXC4. Substitution E135G gave rise to a cavity in the ThDP binding pocket
same,"X-ray crystal structure, 1.9 Å",[2],The overall structure of MeOXC with bound ThDP (orange)
B1,Km,[3]; MeOXC4,5000 ± 1000 µM
same,kcat,[3]; MeOXC4,2 ± 0.2 s⁻¹
same,kcat/Km,[3]; MeOXC4,400 M⁻¹ s⁻¹
same,Km,[4]; MeOXC4,220 ± 30 µM
same,kcat,[4]; MeOXC4,2.4 ± 0.2 s⁻¹
same,kcat/Km,[4]; MeOXC4,11000 M⁻¹ s⁻¹
same,Km,[5],122 ± 16 µM
same,kcat,[5],0.21 ± 0.01 s^–1
B2,Km,[3]; MeOXC2,12000 ± 3000 µM
same,kcat,[3]; MeOXC2,0.57 ± 0.05 s⁻¹
same,kcat/Km,[3]; MeOXC2,50 M⁻¹ s⁻¹
same,Km,[4]; MeOXC2,90 ± 20 µM
same,kcat,[4]; MeOXC2,0.43 ± 0.02 s⁻¹
same,kcat/Km,[4]; MeOXC2,5100 M⁻¹ s⁻¹
B3,Km,[3]; concentrations in Table S4,100000 ± 20000 µM
same,kcat,[3]; concentrations in Table S4,0.2 ± 0.01 s⁻¹
same,kcat/Km,[3]; concentrations in Table S4,2 M⁻¹ s⁻¹
same,Km,[4]; concentrations in Table S4,3000 ± 2000 µM
same,kcat,[4]; concentrations in Table S4,0.31 ± 0.08 s⁻¹
same,kcat/Km,[4]; concentrations in Table S4,100 M⁻¹ s⁻¹
B4,Km,[3]; MeOXC3,12000 ± 3000 µM
same,kcat,[3]; MeOXC3,1.6 ± 0.1 s⁻¹
same,kcat/Km,[3]; MeOXC3,130 M⁻¹ s⁻¹
same,Km,[4]; MeOXC3,170 ± 40 µM
same,kcat,[4]; MeOXC3,1.6 ± 0.1 s⁻¹
same,kcat/Km,[4]; MeOXC3,9400 M⁻¹ s⁻¹
B5,Km,[3]; MeOXC1,30000 ± 2000 µM
same,kcat,[3]; MeOXC1,0.34 ± 0.01 s⁻¹
same,kcat/Km,[3]; MeOXC1,10 M⁻¹ s⁻¹
same,Km,[4]; MeOXC1,160 ± 50 µM
same,kcat,[4]; MeOXC1,0.23 ± 0.01 s⁻¹
same,kcat/Km,[4]; MeOXC1,1400 M⁻¹ s⁻¹
B6,Km,[6],12 ± 1 µM
same,kcat,[6],0.40 ± 0.01 s^–1
